Source: patent US20190264171A1, “DIFFERENTIATION OF PLURIPOTENT STEM CELLS INTO CORNEAL CELLS” (TAMPEREEN YLIOPISTO, priority 2016, published 2019)

B1: BMP-4: bone morphogenetic protein 4 (Peprotech) (protein, UniProt P12644 293-408, looked up)
Bone morphogenetic protein 4: SPKHHSQRARKKNKNCRRHSLYVDFSDVGWNDWIVAPPGYQAFYCHGDCPFPLADHLNSTNHAIVQTLVNSVNSSIPKACCVPTELSAISMLYLDEYDKVVLKNYQEMVVEGCGCR

Tested on: human pluripotent stem cells cultured in feeder free conditions
Assay: Corneal epithelial differentiation of pluripotent stem cells cultured in feeder free conditions
Assay type: cell-based
Method: Feeder-free culture, xeno-free culture of human pluripotent stem cells was based on the use of recombinant Laminin-521 (Biolamina, Sweden) extracellular matrix protein coating and defined, xeno-free culture medium, the Essential 8™ Flex Medium (Life Technologies). The pluripotent stem cells were transferred to the culture system from the standard feeder cell based culture system by manually cutting undifferentiated colony parts with scalpel and plating to ln-521 coated (0.75-1.8 μg/cm^2 overnight at +4° C.) culture plates. The cells are allowed to grow near confluency with medium changed 3-4 times a week, and passaged with TrypLE™ Select Enzyme as single cells twice a week.
Differentiation of pluripotent stem cells cultured on feeder cells to corneal epithelial cells with the induction method disclosed in EP 2828380 comprising TGF-beta inhibitor, Wnt inhibitor and a fibroblast growth factor (10 μM SB-505124+10 μM IWP-2, 50 ng/ml bFGF), followed by differentiation in Cnt-30 epithelial medium on collagen IV matrix, yielded at best >90% p63 positive cells with correct corneal epithelial morphology.
However, prominent neuronal differentiation and cell detachment was recurrently observed as the induction method disclosed in EP 2828380 was used.
The human pluripotent stem cells cultured in the feeder free culture system as described above were differentiated to corneal epithelial cells by detaching the pluripotent cells with TrypLE™ Select Enzyme for 4 min at +37° C. On Day 0, embryoid bodies were created with overnight incubation with 5 μM Blebbistatin (Sigma, B05601) or 10 μM Y-27632 dihydrochloride (R&D Systems, 1254) in a xeno-free culture medium containing: Knockout-Dulbecco's Modified Eagle's Medium (ko-DMEM) supplemented with 15% Xeno-Free Knockout Serum Replacement (XF-ko-SR), 2 mM GlutaMax (all from ThermoFisher Scienfic), 1% MEM Eagle Non-Essential Amino acid solution (NEAA, Cambrex Bio Science), 50 U/ml penicillin/streptomycin (Cambrex Bio Science), 0.1 mM ß-mercaptoethanol (ThermoFisher Scienfic). […]

Molecule | cell survival on omitting the substance from the first phase induction medium (IWP-2 omitted from induction medium, collagen IV + laminin-521 matrix) | corneal epithelial cell morphology and marker expression (25 ng/ml BMP-4 for 2 to 3 days after initial induction) | epithelial morphology and marker expression after additional induction (BMP-4 induction (induction phase 3) after SB-505124/bFGF induction, total of 20-30 days of differentiation)
Cc1ccc2nc(NC(=O)CSc3nc4c(c(=O)n3-c3ccccc3)SCC4)sc2c1 [IWP-2, reference compound] | notably enhanced cell survival | – | –
B1 | – | best result of most cells with correct corneal epithelial cell morphology and marker expression | best result with most cells having correct epithelial morphology and marker expression
